Laboratory results reported in patent US20180049457A1, “ENZYMATIC SYNTHESIS OF SOLUBLE GLUCAN FIBER” (E I DU PONT DE NEMOURS AND COMPANY, priority 2014, published 2018).

B1: GTF0459nativeNT: truncated Streptococcus sp. C150 Gtf-S glucosyltransferase, SEQ ID NO: 19, strain SG1273 (protein, listed as Streptococcus sp.)
chain: MINGKQYYVNSDGSVRKNFVFEQDGKSYYFDAETGALATKSQDEFSTEPIKAAVDFSSGNQLYKNDNKSLDQLDTFITADAWYRPKSILKDGKTWTASTEADKRPLLMVWWPDKSTQVNYLNYMQNQGLGAGSFSTNSSQESLNLAAKAVQTKIEERIAREGNTNWLRTSIDQFIKTQPGWNSSTENSSYDHLQGGQLLFNNSKGDTGNRTSYANSDYRLLNRTPTNQSGTRKYFKDNSIGGLEFLLANDIDNSNPAVQAEQLNWLHFMMNIGSIMANDPTANFDGLRVDALDNVDADLLQIASDYFKAVYGVDKSEANAIKHLSYLEAWSANDPYYNKDTKGAQLPIDNALRNALTNLLMRDKNTRMQLGDMTAFMNSSLNPRGANDKNGERMANYIFTRAHDTEAQTIIQRIIRDRINPNLFGYNFTRDEIKKAFEIYNADINTAHKTYASYNLPSVYALMLTNKDSVTRVYYGDLYREDGHYMAKKTPYFDAIDTLLRARIKYVAGGQDMEVKKVGNDGLLTSVRYGKGANNSTDWGTTETRTQGMGVILTNNYDFRLGSNETVTMNMGRAHRNQLYRPLLLTTKDGLATYLNDSDVPSNLLKRTDWNGNLTFNANDVFGVENVQVSGYLGVWVPVGAKANQDARTQPSNRANSDGQVYKSSAALDSQVMYEAFSNFQAFADDQPELYMNRVLAKNTDLLKAWGVTSVGLPPQYVSSKDGTFLDSTIDNGYAFDDRYDMALSQNNKYGSLEDLLNVLRALHKDGIQAIADWVPDQIYNLPGKEVVNATRVNGYGYHQQGYQIVDQAYVANTRTDGTDYQGRYGGAFLDELKAKYPSIFNRVQISNGKQLPTNEKITKWSAKYFNGTNILGRGINYVLRDDKTNQYFNTSANGQLLPTPLRDTGAITSTQVFQRRGQDVYFLRDNQVIKNEFVQDGNGNWYYFGADGKMTKGAQNINSKDYYFFDNGVQLRNALRRASNGYTYYYGLDGAMIKNAFVDFDDKHQQVRAFTTQGTMVVGNLHWSGHHFYFDRETGIQAKDRIVRTDDGKLHYYVAQTGDMGRNVFATDSRTGKRYYFDADGNTVTGSRVIDGKTYYFNQDGSVGTAYSNRADSIIFENGKARYITPAGEIGRSIFVYNPATKAWNYFDKEGNRVTGRQYIDGNLYYFKEDGSQVKGAIVEENGIKYYYEPGSGILASGRYLQVGDDQWIYFKHDGSLAIGQVRADGGYLKYFDKNGIQVKGQTIVEDGHTYYYDADSGALVTSSFAEIAPNQWAYFNTEGQALKGKWTINGKEYYFDQNGIQYKGKAVKVGSRYKYYDENDGQPVTNRFAQIEPNVWAYFGADGYAVTGEQVINGQHLYFDQSGRQVKGAYVTVNGQRRYYDANTGEYIPGR
B2: GTF0459NTnativeT5: T5 C-terminal truncation of GTF0459, SEQ ID NO: 126, strain SG1297 (protein)
chain: INGKQYYVNSDGSVRKNFVFEQDGKSYYFDAETGALATKSQDEFSTEPIKAAVDFSSGNQLYKNDNKSLDQLDTFITADAWYRPKSILKDGKTWTASTEADKRPLLMVWWPDKSTQVNYLNYMQNQGLGAGSFSTNSSQESLNLAAKAVQTKIEERIAREGNTNWLRTSIDQFIKTQPGWNSSTENSSYDHLQGGQLLFNNSKGDTGNRTSYANSDYRLLNRTPTNQSGTRKYFKDNSIGGLEFLLANDIDNSNPAVQAEQLNWLHFMMNIGSIMANDPTANFDGLRVDALDNVDADLLQIASDYFKAVYGVDKSEANAIKHLSYLEAWSANDPYYNKDTKGAQLPIDNALRNALTNLLMRDKNTRMQLGDMTAFMNSSLNPRGANDKNGERMANYIFTRAHDTEAQTIIQRIIRDRINPNLFGYNFTRDEIKKAFEIYNADINTAHKTYASYNLPSVYALMLTNKDSVTRVYYGDLYREDGHYMAKKTPYFDAIDTLLRARIKYVAGGQDMEVKKVGNDGLLTSVRYGKGANNSTDWGTTETRTQGMGVILTNNYDFRLGSNETVTMNMGRAHRNQLYRPLLLTTKDGLATYLNDSDVPSNLLKRTDWNGNLTFNANDVFGVENVQVSGYLGVWVPVGAKANQDARTQPSNRANSDGQVYKSSAALDSQVMYEAFSNFQAFADDQPELYMNRVLAKNTDLLKAWGVTSVGLPPQYVSSKDGTFLDSTIDNGYAFDDRYDMALSQNNKYGSLEDLLNVLRALHKDGIQAIADWVPDQIYNLPGKEVVNATRVNGYGYHQQGYQIVDQAYVANTRTDGTDYQGRYGGAFLDELKAKYPSIFNRVQISNGKQLPTNEKITKWSAKYFNGTNILGRGINYVLRDDKTNQYFNTSANGQLLPTPLRDTGAITSTQVFQRRGQDVYFLRDNQVIKNEFVQDGNGNWYYFGADGKMTKGAQNINSKDYYFFDNGVQLRNALRRASNGYTYYYGLDGAMIKNAFVDFDDKHQ
modifications: T5 C-terminal truncation of GTF0459
B3: GTF3808NT: N terminal-only truncated GTF3808 from Streptococcus sp. SR4, SEQ ID NO: 108, strain SG1313 (protein)
chain: INGKQYYVNSDGSVRKNFVFEQDGKSYYFDAETGALATKSQDEFSTEPIKATVDFSSGNQLYKNDDKSLDQLDTFITADAWYRPKSILKDGKTWTASTEADKRPLLMVWWPDKSTQVNYLNYMQNQGLGAGSFSTNSSQESLDQAAKMVQTKIEERIAREGNTNWLRTSIDQFIKTQPGWNSSTENSSYDHLQGGQLLFNNSKGDTGNRTSHANSDYRLLNRTPTNQTGTRKYFKDNSIGGLEFLLANDIDNSNPAVQAEQLNWLHFMMNIGSIMANDPTANFDGLRVDALDNVDADLLQIASDYFKAAYGVDKSEANAIKHLSYLEAWSANDPYYNKDTKGAQLPIDNALRNALTNLLMRDKNTRMQLGDMTAFINSSLNPRGANDKNGERMANYIFTRAHDTEAQTIIQRIIRDRINPNLFGYNFTRDEIKKAFEIYNEDIDKAHKTYASYNLPSVYALMLTNKDSVTRVYYGDLYREDGHYMAKKTPYFDAIDTLLRARIKYVAGGQDMEVKKVGNDGLLTSVRYGKGANNRTDLGTSETRTQGMGVIMTNNYDFRLGSNETVTMNMGRAHRNQLYRPLLLTTKDGIATYLNDSDVPKNLLKRTDWNGNLTFNANDVFGVENVQVSGYLGVWVPYGAKANQDARTQPSNRANSDGQVYKSSAALDSQVMYEAFSNFQAFADDQPELYMNRVLAKNTDLLKAWGITSVGLPPQYVSSKDGTFLDSTIDNGYAFDDRYDMALSQNNKYGSLEDLLNVLRALHKDGIQAIADWVPDQIYNLPGKEVVNATRVNGYGNHQVGYQIIDQAYVANTRTDGTDYQGKYGGAFLDELKAKYPSIFNRVQISNGKQLPTNEKITKWSAKYFNGTNILGRGINYVLRDDKTNQYFNTSANSQLLPTPLRDTGAITSTQVFQRRGQDVYFLRDNQAVKNEFVQDGNGNWYYFGGDGKMTKGAQNINNKDYYFFDNGIQLRNALRRASNGYTYYYGLDGAMVKNAFVDFDDKHKQVRAFTTQGTMVVGNLHWSGHHFYFDRETGIQAKDRVVRTDDGKLHYYVAETGDMGRNVFATDSSTGKRYYFDADGNTVTGSRVIDGKTYYFNQDGSVGTAYSNRADSIIFENGKARYITPAGEIGRSIFVYNPATKAWNYFDKEGNRVTGRQYIDGHLYYFKEDGSQAKGEIIEENGIKYYYEPESGILASGRYLQVGDDQWMYFKQDGSLAIGQVRADHGYLKYFDKNGIQVKGKTVVEDGKTYYYDAHSGALVTSSFAEIAPNQWSYFNTDGQALKGKWTINGKEYYFDENGIQYKGKAIKVGSRYKYYDENDGQPVTNRFAQIEPNVWAYFGADGYAVTGEQVINGQHLYFDQSGRQVKGAYVTVNGQRRYYDANTGEYVPGR
modifications: Streptococcus sp. SR4
B4: GTF0459NTnativeT6: T6 C-terminal truncation of GTF0459, SEQ ID NO: 134, strain SG1298 (protein)
chain: INGKQYYVNSDGSVRKNFVFEQDGKSYYFDAETGALATKSQDEFSTEPIKAAVDFSSGNQLYKNDNKSLDQLDTFITADAWYRPKSILKDGKTWTASTEADKRPLLMVWWPDKSTQVNYLNYMQNQGLGAGSFSTNSSQESLNLAAKAVQTKIEERIAREGNTNWLRTSIDQFIKTQPGWNSSTENSSYDHLQGGQLLFNNSKGDTGNRTSYANSDYRLLNRTPTNQSGTRKYFKDNSIGGLEFLLANDIDNSNPAVQAEQLNWLHFMMNIGSIMANDPTANFDGLRVDALDNVDADLLQIASDYFKAVYGVDKSEANAIKHLSYLEAWSANDPYYNKDTKGAQLPIDNALRNALTNLLMRDKNTRMQLGDMTAFMNSSLNPRGANDKNGERMANYIFTRAHDTEAQTIIQRIIRDRINPNLFGYNFTRDEIKKAFEIYNADINTAHKTYASYNLPSVYALMLTNKDSVTRVYYGDLYREDGHYMAKKTPYFDAIDTLLRARIKYVAGGQDMEVKKVGNDGLLTSVRYGKGANNSTDWGTTETRTQGMGVILTNNYDFRLGSNETVTMNMGRAHRNQLYRPLLLTTKDGLATYLNDSDVPSNLLKRTDWNGNLTFNANDVFGVENVQVSGYLGVWVPVGAKANQDARTQPSNRANSDGQVYKSSAALDSQVMYEAFSNFQAFADDQPELYMNRVLAKNTDLLKAWGVTSVGLPPQYVSSKDGTFLDSTIDNGYAFDDRYDMALSQNNKYGSLEDLLNVLRALHKDGIQAIADWVPDQIYNLPGKEVVNATRVNGYGYHQQGYQIVDQAYVANTRTDGTDYQGRYGGAFLDELKAKYPSIFNRVQISNGKQLPTNEKITKWSAKYFNGTNILGRGINYVLRDDKTNQYFNTSANGQLLPTPLRDTGAITSTQVFQRRGQDVYFLRDNQVIKNEFVQDGNGNWYYFGADGKMTKGAQNINSKDYYFFDNGVQLRNALRRASNGYTYYYGLDGAMIKNAFVDFDDKHQQVRAFTTQ
modifications: T6 C-terminal truncation of GTF0459

Assay: GTF activity of strains (PAHBAH assay)
Assay type: biochemical
Conditions: enzyme expressed in B. subtilis host
How it was run: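 Glucosyltransferase (GTF) activity of the bacterial strains was measured with the PAHBAH assay. The enzymes tested were truncated GTF variants produced in a Bacillus subtilis expression host. Measurements were split across three separate experiments, and each activity value is reported together with the experiment it came from because results varied slightly between experiments.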

Row | Molecule | GTF activity of strains: Acitivity (Experiment Number 1) [U/mL] | GTF activity of strains: Acitivity (Experiment Number 2) [U/mL] | GTF activity of strains: Acitivity (Experiment Number 3) [U/mL]
1 | B1 | 26.5 | 39.4 | –
2 | B2 | – | 52 | –
3 | B3 | – | – | 34.9
4 | B4 | 28.5 | – | –
